# Where a chain is given by its changes, count along the chain named. Names may count otherwise.
# B1: H267G: ADA2 variant SEQ ID NO:37 (protein)
# chain: IDETRAHLLLKEKMMRLGGRLVLNTKEELANERLMTLKIAEMKEAMRTLIFPPSMHFFQAKHLIERSQVFNILRMMPKGAALHLHDIGIVTMDWLVRNVTYRPHCHICFTPRGIMQFRFAHPTPRPSEKCSKWILLEDYRKRVQNVTEFDDSLLRNFTLVTQHPEVIYTNQNVVWSKFETIFFTISGLIHYAPVFRDYVFRSMQEFYEDNVLYMEIRARLLPVYELSGEHHDEEWSVKTYQEVAQKFVETHPEFIGIKIIYSDGRSKDVAVIAESIRMAMGLRIKFPTVVAGFDLVGHEDTGHSLHDYKEALMIPAKDGVKLPYFFHAGETDWQGTSIDRNILDALMLNTTRIGHGFALSKHPAVRTYSWKKDIPIEVCPISNQVLKLVSDLRNHPVATLMATGHPMVISSDDPAMFGAKGLSYDFYEVFMGIGGMKADLRTLKQLAMNSIKYSTLLESEKNTFMEIWKKRWDKFIADVATK
# modifications: human ADA2 H264G, mature numbering
# B2: R222K: ADA2 variant SEQ ID NO:38 (protein)
# chain: B1 chain with R219K, G264H
# modifications: human ADA2 R219K, mature numbering
# B3: H267A: ADA2 variant SEQ ID NO:34 (protein)
# chain: B1 chain with G264A
# modifications: human ADA2 H264A, mature numbering
# B4: S265A: ADA2 variant SEQ ID NO:51 (protein)
# chain: B1 chain with S262A, G264H
# modifications: human ADA2 S262A, mature numbering
# B5: S265V: ADA2 variant SEQ ID NO:52 (protein)
# chain: B1 chain with S262V, G264H
# modifications: human ADA2 S262V, mature numbering
# B6: E182T: ADA2 variant SEQ ID NO:48 (protein)
# chain: B1 chain with E179T, G264H
# modifications: human ADA2 E179T, mature numbering
# B7: E182G: ADA2 variant SEQ ID NO:50 (protein)
# chain: B1 chain with E179G, G264H
# modifications: human ADA2 E179G, mature numbering
# B8: L224V: ADA2 variant SEQ ID NO:43 (protein)
# chain: B1 chain with L221V, G264H
# modifications: human ADA2 L221V, mature numbering
# B9: H267Q: ADA2 variant SEQ ID NO:35 (protein)
# chain: B1 chain with G264Q
# modifications: human ADA2 H264Q, mature numbering
# B10: E182D: ADA2 variant SEQ ID NO:45 (protein)
# chain: B1 chain with E179D, G264H
# modifications: human ADA2 E179D, mature numbering
# B11: E182S: ADA2 variant SEQ ID NO:47 (protein)
# chain: B1 chain with E179S, G264H
# modifications: human ADA2 E179S, mature numbering
# B12: S265M: ADA2 variant SEQ ID NO:53 (protein)
# chain: B1 chain with S262M, G264H
# modifications: human ADA2 S262M, mature numbering
# B13: E182V: ADA2 variant SEQ ID NO:49 (protein)
# chain: B1 chain with E179V, G264H
# modifications: human ADA2 E179V, mature numbering
# B14: R222N: ADA2 variant SEQ ID NO:40 (protein)
# chain: B1 chain with R219N, G264H
# modifications: human ADA2 R219N, mature numbering
# B15: L224G: ADA2 variant SEQ ID NO:44 (protein)
# chain: B1 chain with L221G, G264H
# modifications: human ADA2 L221G, mature numbering
# B16: E182A: ADA2 variant SEQ ID NO:46 (protein)
# chain: B1 chain with E179A, G264H
# modifications: human ADA2 E179A, mature numbering
# B17: R222A: ADA2 variant SEQ ID NO:41 (protein)
# chain: B1 chain with R219A, G264H
# modifications: human ADA2 R219A, mature numbering
# B18: L224A: ADA2 variant SEQ ID NO:42 (protein)
# chain: B1 chain with L221A, G264H
# modifications: human ADA2 L221A, mature numbering
# Test: Adenosine deaminase (ADA) enzymatic activity assay kit
# Format: biochemical
# Details: purified protein at 5 μg/mL
# Description: Adenosine deaminase activity was determined using an adenosine deaminase (ADA) assay kit (Genway, San Diego, Calif.; Cat. No. BQ014EALD) with minor modifications. The ADA assay is based on the enzymatic deamination of adenosine to inosine, which is converted to hypoxanthine by purine nucleoside phosphorylase (PNP). Hypoxanthine is then converted to uric acid and hydrogen peroxide by xanthine oxidase (XOD). Hydrogen peroxide is further reacted with N-Ethyl-N-(2-hydroxy-3-sulfopropyl)-3-methylaniline (EHSPT) and 4-aminoantipyrine (4-AA) in the presence of peroxidase (POD) to generate quinone dye, which is monitored in a kinetic manner.
# Briefly, 5 μL samples in duplicates (at appropriate dilutions to measure steady-state, non-saturating enzyme activity) were added to 120 μL R1 reagent (provided by the manufacturer; 50 mM Tris HCL, pH 8.0, 2 mM 4-AA, 0.1 U/mL PNP, 0.2 U/mL XOD, 0.6 U/mL peroxidase) in a 96 well plate, according to manufacturer's instructions. The mixtures were incubated at 37° C. for approximately 5 min and 60 μL of R2 reagent (provided by the manufacturer; 50 mM Tris HCl, pH 4.0, 10 mM Adenosine, 2 mM EHSPT) was added to the mixtures. Then, change in absorbance (AA) at 556 nm over time at 37° C. was measured. One unit of ADA is the amount of ADA that generates one μmole of inosine from adenosine per minute at 37° C. Adenosine deaminase activity in mU/mL was calculated using the following formula: 1 mU/mL=(ΔA/min×Tv)/(Sv×ϵ×1) • where Tv=total volume (185 μL), Sv=sample volume (5 μL), ϵ=32.2×10^−3 μM^−1 cm^−1, 1=0.5 cm.
# Adenosine deaminase activity of WT rHuADA2 and variants tested above were determined using the adenosine deaminase activity (ADA) assay described in Example 4. Activity was assessed on purified rHuADA2 WT and variants that were diluted to 5 μg/mL, and then serially diluted 2 fold to generate 4 measurements.
# Adenosine deaminase activity of PEGylated rHuADA2 and variants was assessed using the method described in Example 4, and compared to the activity of the corresponding non-PEGylated form.
# Selected candidate variants described in Table 8 above, containing an amino acid substitution in a residue that play a role in enzymatic activity, were assessed for their adenosine deaminase activity using the method described in Example 4. To perform the experiments, purified WT rHuADA2 and tested variants were prepared at 5 μg/mL concentration to normalize the amount of protein in each experiment.
Molecule,Adenosine deaminase activity mU/ml [mU/ml],Adenosine deaminase activity ΔA/min
B1,119.1,51.8 ΔA/min
B2,118.5,51.5 ΔA/min
B3,70.9,30.8 ΔA/min
B4,47.1,20.5 ΔA/min
B5,66.1,28.8 ΔA/min
B6,6.2,2.7 ΔA/min
B7,6.9,3 ΔA/min
B8,96.1,41.8 ΔA/min
B9,89.3,38.8 ΔA/min
B10,18.1,7.8 ΔA/min
B11,9.5,4.1 ΔA/min
B12,81.6,35.5 ΔA/min
B13,8,3.5 ΔA/min
B14,81.5,35.4 ΔA/min
B15,88.2,38.3 ΔA/min
B16,8.6,3.7 ΔA/min
B17,31.2,13.6 ΔA/min
B18,100.1,43.5 ΔA/min

# Same assay, conditions: purified protein at 5 μg/mL; compared to WT-ADA2
row,% of WT activity [%],Molecule
1,153,B1
2,152,B2
3,91,B3
4,60,B4
5,85,B5
6,8,B6
7,9,B7
8,123,B8
9,114,B9
10,23,B10
11,12,B11
12,105,B12
13,10,B13
14,104,B14
15,113,B15
16,11,B16
17,40,B17
18,128,B18

# — patent US9969998B2, “Compositions of adenosine deaminase-2 (ADA2), variants thereof and methods of using same” (Halozyme, Inc., priority 2014, dated 2018)
